Publication PMC6123711, “Conformational signatures in β-arrestin2 reveal natural biased agonism at a G-protein-coupled receptor” (Communications Biology, 2018)

How the values were obtained:
mice = conditions: cited from earlier work
Source text: (§1) G-protein-coupled receptors (GPCRs) are the largest family of cell surface receptors that communicate extracellular stimuli to the cell interior[1]. Biased ligands are of particular interest because they offer the possibility to design a novel class of therapeutic agents. In some GPCRs, biased ligands that preferentially activate G-protein-dependent signaling have therapeutic potential. […] Most descriptions of biased ag ...

Galr2 = test: Gαq-dependent Erk1/2 phosphorylation (β-arrestin1/2-knockout HEK293 cells); assay type: cell-based, human; conditions: for ΔLog(τ/KA), Gαq-dependent-pErk1/2: normalized to Galanin (reference agonist), in parenthesis, mean ± s.e.m. of three experiments in triplicate; for Log(τ/KA), Gαq-dependent-pErk1/2: western blot, 5 min stimulation, operational model (Eq. 2), mean ± s.e.m. of three experiments in triplicate (table footnote)
Source text: Galr2 is primarily coupled to the Gαq-protein which activates the phospholipase C/protein kinase C pathway for inositol phosphate production. We measured G-protein activation in HEK293 cells transiently expressing Galr2, using the serum response element-luciferase (SRE-Luc) gene reporter assay[10],[37] and for a more specific monitoring of Gαq-protein activity we also measured total inositol phosphate production. […] However, some differences were observed between SRE-Luc activity and total inositol phosphate production in the rank order of potency of the tested ligands. […] Phosphorylation of extracellular signal-regulated protein kinases 1 and 2 (pErk1/2) is either G-protein or β-arrestin dependent. To distinguish Gαq-protein- and β-arrestin1/2-dependent Erk1/2 signaling, we examined ligand-stimulated Erk1/2 phosphorylation in three different HEK293 cell lines, wild type, Gαq/11-knockout, and β-arrestin1/2-knockout cells. All three ligands induced high levels of Erk1/2 phosphorylation dose-dependently in wild-type HEK293 cells.
Fig. 5 Galr2 agonists display different Gαq-protein-dependent signaling and pErk1/2. The ability of increasing concentrations of agonists to induce a SRE-Luc activity and b total inositol phosphate production. c Representative western blot showing ligand-induced phosphorylation of Erk1/2 from wild-type (HEK293 WT), Gαq/11-, and β-arrestin1/2-knockout HEK293 cells expressing Galr2 (original blots are presented in Supplementary Figure 4). pErk1/2 and total Erk levels were determined at 5 min after stimulation of different concentrations of three ligands. Western blot band intensities corresponding to each concentration were quantified using Image studio ^TM Software. […] Data are the mean ± s.e.m. values of two independent experiments
pErk1/2 was measured using western blot assay. HEK293 Gαq/11 and β-arrestin1/2-knockout cells were a kind gift from Professor Asuka Inoue, Tohoku University. The cells were seeded into 6-well plates at a density of 6 × 10^5 cells per well. The next day, they were transfected using 2 μg/well of plasmid containing human Galr2 cDNA and Lipofectamine 2000, according to the manufacturer’s instructions. Before assay, the cells were washed with phosphate-buffered saline and incubated in serum-free DMEM overnight. Dose–response experiments were performed for each ligand at 37 °C. Stimulation of the cells was terminated after 5 min of agonist stimulation by removing the medium, and the addition of 250 μl cold lysis buffer to each well. Immunoblots of phospho-Erk1/2 were obtained using 8 μg of total protein and p44/42 MAPK Erk1/2 antibody (Cell Signaling Technology Inc, catalog no. 4370 S); horseradish peroxidase-conjugated goat anti-rabbit IgG was used as a secondary antibody (Thermo Fisher Scientific). The proteins were visualized using enhanced chemiluminescence (GE Health Care). Image Studio ^TM Software was used for the pErk1/2 band density analysis.

[1] = system: galanin receptor 1 (Galr1); conditions: cited from earlier work
Source text: as §1

[2] = system: diet-induced obese rodents; conditions: cited from earlier work
Source text: as §1

[3] = system: luteinizing hormone (LH) secretion; conditions: cited from earlier work
Source text: as §1

goldfish = conditions: cited from earlier work
Source text: as §1

| Molecule | food intake (mice) | ΔLog(τ/KA), Gαq-dependent-pErk1/2 (Galr2) | Log(τ/KA), Gαq-dependent-pErk1/2 (Galr2) | activation of Galr1 [1] | body weight [2] | LH secretion, goldfish [3] | appetite (goldfish) | pathway responsible for agonist-induced Erk1/2 phosphorylation (Galr2; from comparison of wild-type, Gαq/11- and β-arrestin1/2-knockout HEK293 cells) |
| --- | --- | --- | --- | --- | --- | --- | --- | --- |
| Galanin [reference compound] | food intake increase | 0.00 ± .22 | 6.90 ± 0.22 |  |  |  |  |  |
| Spexin (peptide, UniProt Q9BT56 27-116, looked up, Spexin, endogenous peptide ligand of Galr2 and Galr3; synthesized by AnyGen) Spexin: APQRLLERRNWTPQAMLYLKGAQGRRFISDQSRRKDLSDRPLPERRSPNPQLLTIPEAATILLASLQKSPEDEEKNFDQTRFLEDSLLNW |  | 0.57 ± 0.22 | 7.47 ± 0.21 | does not activate Galr1 | weight loss | attenuates LH secretion | suppresses appetite | likely mainly attributable to the G-protein-dependent signaling pathway |
